Results on 2 substances are retold here after article PMC8378821.

In assay [1] the target is Mycobacterium smegmatis MSMEG_6251 soluble domain (msTiME-SD) (M. smegmatis mc^2155). Kind of assay: crystal structure.
Assay [2] deals with Mycobacterium tuberculosis Rv3705c soluble domain (mtTiME-SD) (M. tuberculosis H37Rv). Kind of assay: SEC-MALS. Background: In gel filtration, larger molecules generally elute earlier.

For the substance “Mycobacterium smegmatis MSMEG_6251 soluble domain (msTiME-SD) (domain or fragment)”, the stoichiometry N in assay [1] was found to be 8. As for “Mycobacterium tuberculosis Rv3705c soluble domain (mtTiME-SD) (domain or fragment)”, in assay [2], the stoichiometry N came to 16.

One may read the stoichiometry N as a count of units in the complex or per binding partner.
